Results: the supplement of paper PMC9170038

Tested on: MS2 coat protein
Test: apparent KD of MS2 coat protein; designed switch direction (-1 OFF switch, 1 ON switch): -1; higher = weaker reporter binding
Summary of the method: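 Designed RNA switches were transcribed on Illumina chips by stalled E. coli RNA polymerase and titrated with SNAP-549-labelled MS2 coat protein from 0.7 or 1.5 nM, doubling to 3 µM. Step length ran from 0.8–1.5 h at the lowest concentration to 10–20 min at the highest. The apparent KD is the median over clusters for each design, from curve-fitted normalised cluster fluorescence.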

[1] = input ligand: microRNA oligo, concentration not stated
[2] = Eterna round: R95, input ligand: microRNA oligo, concentration not stated

Sequence | apparent KD of MS2 coat protein (input ligand: FMN 200 uM) | apparent KD of MS2 coat protein (input ligand: none) | apparent KD of MS2 coat protein [1] | apparent KD of MS2 coat protein (Eterna round: R95, input ligand: FMN 200 uM) | apparent KD of MS2 coat protein [2] | apparent KD of MS2 coat protein (Eterna round: R95, input ligand: none)
AAAUUGUGAGGAUAUUAGUUGUACGUCAAUAGACGUAUAAGUGAGAAGGCACAUGAGGAUCACCCAUGUUCCUG [Omei Ex4 Mod of Mat's R95 mod of Omei] (Eterna round: R97, puzzle: Exclusion 4) | 61.8 nM | 16.8 nM |  |  |  | 
AAAUUUGGAGGAUAUUCAUUGGGAAACAUGAGGAUCACCCAUGUGAUAUAAGGGAAAUCCGGAGAAGGCUAAAUUU [-17.1, -14.1 kcal, 37% A] (Eterna round: R97, puzzle: Exclusion 5) | 30.7 nM | 28.2 nM |  |  |  | 
AACAAACAUGAGGAUCACCCAUGUCAGGAUAUGCACAAACAAACAAACAAACAAGCAAGCAGAAGGGACACAAC [Amethyst 89] (Eterna round: R96, puzzle: Exclusion 1) | 34.7 nM | 24.8 nM | 22.4 nM |  |  | 
AACAAGCAAGGAUAUACCGGAGGUGUGUCCUCACCUAAGGGACUUGAGGAUCACCCAAGUAGAAGGUGCAACAA [Raxela] (Eterna round: R97, puzzle: Exclusion 2) | 41.5 nM | 141 nM |  |  |  | 
AACAAGCUUUUUUGAUGAAUGAUAGUAGGUAGCUCCUUUACAUGAGGAUCACCCAUGUUUGUGUAGCUCGAUCUUUU [JR_SV3TOV2_Sub077] (puzzle: Sensor v3, turn-off variant 2) |  |  |  | 12.7 nM | 16.2 nM | 12.1 nM
AACACAUGAGGAUAUACAUGAGGAUCACCCAUGUUGUCACUACACCCGGGUGCCUGGUGUAGAAGGCAUGAAGA [Eternabot (Original) Solution 30] (Eterna round: R97, puzzle: Exclusion 3) | 71.2 nM | 34.1 nM |  |  |  | 
AACACUGCAGGAUAUACAUGAGGAUCACCCAUGUGAUCCGAUAACUCCCACGGGAGGAGUAGAAGGGUAAAAGG [Eternabot (Original) Solution 6] (Eterna round: R97, puzzle: Exclusion 3) | 170 nM | 264 nM |  |  |  | 
AACAGCACAGGAUAUACAUGAGGAUCACCCAUGUGAGAAUUAAGUAGAUUGCCACAGAGUAGAAGGGUGCUGGA [Ruby 99] (Eterna round: R96, puzzle: Exclusion 3) | 88.9 nM | 38.9 nM | 36.4 nM |  |  | 
AACAGCAGCUUUUUGCGCAACAUGAGGAUCACCCAUGUUGCAUGAGCAGCGUCGGGAGGUACCGGUUUCGUUUUGUC [Eternabot (L1) Solution 45] (Eterna round: R97, puzzle: Sensor, turn-off variant 1) | 18.7 nM | 18.1 nM |  |  |  | 
AACAGUCUAGAGGAUAUGCUGGAUAAAUAUCUGGCAGAAGGCUGGACAUGAGGAUCACCCAUGUAAAUACUACC [Omei Ex6 A1b] (Eterna round: R97, puzzle: Exclusion 6) | 99.6 nM | 38.6 nM |  |  |  | 
AACAGUCUAGAGGAUAUGCUGGAUUAAUAUCUUGCAGAAGGCUGGACAUGAGGAUCACCCAUGUAAAUACUACC [Omei Ex6 A12] (Eterna round: R97, puzzle: Exclusion 6) | 94 nM | 31.9 nM |  |  |  | 
AACAGUCUAGAGGAUAUGUUGGAUUAAUAUCUGGCAGAAGGCUGGACAUGAGGAUCACCCAUGUAAAUACUACC [Omei Ex6 A14] (Eterna round: R97, puzzle: Exclusion 6) | 98.7 nM | 34.4 nM |  |  |  | 
AACAUACAUGAGGAUCACCCAUGUGAGGAUAUGAGAGUCAACUCGAGAGAGUUGAUUCUCAGAAGGCACAUAAA [JR_Ex1_Sub065] (Eterna round: R97, puzzle: Exclusion 1) | 226 nM | 67.5 nM |  |  |  | 
AACAUGAGGAUCACCCAUGUGAACCUCCUAAAAUACGACCGGUAGGAUAUACGAAAGAGCCGGAAGUAGAAGGACCGGUUAAAA [Esusale] (Eterna round: R96, puzzle: Exclusion NG 3) | 460 nM | 158 nM | 96.1 nM |  |  | 
AACAUGGCAGAGGAUAUAGGACGCUGGCAUAAACUAGAAGGCUGCACAUGAGGAUCACCCAUGUGUUCCAAAAC [Atquisuson] (Eterna round: R97, puzzle: Exclusion 6) | 38.6 nM | 22.6 nM |  |  |  | 
AACAUGUCAGGAUAUGUGACAUGGCUCUUCGGAGCAAGAUCACAGAAGGGACAUGAGGAUCACCCAUGUCGAUC [Ex4-3: 28] (puzzle: Exclusion 4) |  |  |  |  | 32.7 nM | 
AACAUGUGAGGAUAUGUCACAUGGCUCUUCGGAGCAAGAUGACAGAAGGCACAUGAGGAUCACCCAUGUGCAUC [Ex4-3: 27] (puzzle: Exclusion 4) |  |  |  |  | 11.6 nM | 
AACCAGCGAGGAUAUGCUUGCGCGUGUUCUAGUUGAAAUCGACUUGAGGAUCACCCAAGUAGAAGGCGCAGCCG [EX2 #48] (Eterna round: R97, puzzle: Exclusion 2) | 83.9 nM | 43.9 nM |  |  |  | 
AACCAGCGAGGAUAUGCUUGCGCGUGUUCUGGUUAUAAUCGACUUGAGGAUCACCCAAGUAGAAGGCGCUGCCG [EX2 #52] (Eterna round: R97, puzzle: Exclusion 2) | 179 nM | 64.2 nM |  |  |  | 
AACCAGCGAGGAUAUUGUCGGUACAACAUGAGGAUCACCCAUGUCACGUGAUCUUCCCAACAAGAAGGUGCACUAC [Axeedesza] (Eterna round: R97, puzzle: Exclusion 5) | 324 nM | 272 nM |  |  |  | 
AACCAGCGAGGAUAUUGUUGGUAAAACAUGAGGAUCACCCAUGUCACGUGAUCUUCCCAACAAGAAGGUGCACUAA [Isrierin] (Eterna round: R97, puzzle: Exclusion 5) | 183 nM | 46.7 nM |  |  |  | 
AACCCAAUGGCAGGAUAUAGUAGACGACUCGGUCUAGAAGGGCCGCACAUGACAUGAGGAUCACCCAUGUUUCAUCUGAGGGAC [Eternabot solution 27] (Eterna round: R96, puzzle: Exclusion NG 1) | 14.1 nM | 19.4 nM | 14 nM |  |  | 
AACCCGUGUGUCAGGAUAUUGAGUCAGACUGGCUACAAGAAGGGACAUGAGGAUCACCCAUGUACUUAGAGAAA [BmEX4 B.22] (Eterna round: R97, puzzle: Brourd's mod of Exclusion 4) | 37.8 nM | 17.9 nM |  |  |  | 
AACCCUCGUCAAGGAUAUACAUAGAAAAGCUUGGUAGAAGGUGACAUGAGGAUCACCCAUGUAUAAAGUUCGUCCAAUCGAACC [Diesisra] (Eterna round: R96, puzzle: Exclusion NG 1) | 139 nM | 110 nM | 80.9 nM |  |  | 
AACCCUCGUGUUAGGAUAUCCAGCGUCCGGGCGAGGGAGAAGGGACAUGAGGAUCACCCAUGUUUCGAUGGACA [Xeinesed] (Eterna round: R97, puzzle: Brourd's mod of Exclusion 4) | 19.5 nM | 19 nM |  |  |  | 
AACCGGGCGGCAGGAUAUCCAGAUUAAUUGUGGUAGUCCUGACAUGAGGAUCACCCAUGUGAAAAGGAGAAGGGCCGGAAAUUA [Onona] (Eterna round: R96, puzzle: Exclusion NG 2) | 437 nM | 122 nM | 64.1 nM |  |  | 
